B1: chimeric llama-human IgG1 mAb 76G7 (antibody, V domains shown)
VH: QVQLVESGGNLVQPGGSLRLSCAASGFTFSNYYMSWVRQAPGKGLEWVSDIYSDGSTTWYSDSVKGRFTISRDNAKNTLSLQMNSLKSEDTAVYYCARVKIYPGGYDAWGQGTQVTVSS
VL: QAGLTQPPSVSGSPGKTVTISCAGNSSDVGYGNYVSWYQQFPGMAPKLLIYLVNKRASGITDRFSGSKSGNTASLTISGLQSEDEADYYCASYTGSNNIVFGGGTHLTVL
B2: recombinant mouse HGF (R&D Systems) (ligand, UniProt Q08048 33-728, looked up)
chain: QKKRRNTLHEFKKSAKTTLTKEDPLLKIKTKKVNSADECANRCIRNRGFTFTCKAFVFDKSRKRCYWYPFNSMSSGVKKGFGHEFDLYENKDYIRNCIIGKGGSYKGTVSITKSGIKCQPWNSMIPHEHSFLPSSYRGKDLQENYCRNPRGEEGGPWCFTSNPEVRYEVCDIPQCSEVECMTCNGESYRGPMDHTESGKTCQRWDQQTPHRHKFLPERYPDKGFDDNYCRNPDGKPRPWCYTLDPDTPWEYCAIKTCAHSAVNETDVPMETTECIQGQGEGYRGTSNTIWNGIPCQRWDSQYPHKHDITPENFKCKDLRENYCRNPDGAESPWCFTTDPNIRVGYCSQIPKCDVSSGQDCYRGNGKNYMGNLSKTRSGLTCSMWDKNMEDLHRHIFWEPDASKLNKNYCRNPDDDAHGPWCYTGNPLIPWDYCPISRCEGDTTPTIVNLDHPVISCAKTKQLRVVNGIPTQTTVGWMVSLKYRNKHICGGSLIKESWVLTARQCFPARNKDLKDYEAWLGIHDVHERGEEKRKQILNISQLVYGPEGSDLVLLKLARPAILDNFVSTIDLPSYGCTIPEKTTCSIYGWGYTGLINADGLLRVAHLYIMGNEKCSQHHQGKVTLNESELCAGAEKIGSGPCEGDYGGPLICEQHKMRMVLGVIVPGRGCAIPNRPGIFVRVAYYAKWIHKVILTYKL
modifications: biotinylated at the N-terminus using NHS-LC-biotin in the competition ELISA only
B3: chimeric llama-human IgG1 mAb 71G12 (antibody, V domains shown)
VH: QVQLQESGGDLVQPGGSLRVSCVVSGFTFSRYYMSWVRQAPGKGLEWVSSIDSYGYSTYYTDSVKGRFTISRDNAKNTLYLQMNSLKPEDTALYYCARAKTTWSYDYWGQGTQVTVSS
VL: EIVLTQSPSSVTASVGGKVTINCKSSQSVFIASNQKTYLNWYQQRPGQSPRLVISYASTRESGIPDRFSGSGSTTDFTLTISSVQPEDAAVYYCQQAYSHPTFGQGTKVELK
B4: Fab 71G12 (Fab, V domains shown)
VH: B3 VH
VL: B3 VL
notes: llama Fab (VH-CH1, kappa VL-CL) with MYC flag, crude periplasmic extract
B5: chimeric llama-human IgG1 mAb 74C8 (antibody, V domains shown)
VH: EVQLVESGGGLVQPGGSLRLSCAASGFTFRNYHMSWVRQVPGKGFEWISDINSAGGSTYYADSVKGRFTISRDNAKNTLYLEMNSLKPEDTALYYCARVNVWGVNYWGKGTLVSVSS
VL: QTVVTQEPSLSVSPGGTVTLTCGLSSGSVTTSNYPGWFQQTPGQAPRTLIYNTNSRHSGVPSRFSGSISGNKAALTITGAQPEDEADYYCSLYPGSYTNVFGGGTHLTVL

Key:
[1] = target: T1, native human MET on living human cells (human, UniProt P08581 25-1390); assay: flow cytometry, A549 cells
T1 construct: whole, on cells; also called Human cells (A549); HPAF-II
T1 sequence (P08581 25-1390): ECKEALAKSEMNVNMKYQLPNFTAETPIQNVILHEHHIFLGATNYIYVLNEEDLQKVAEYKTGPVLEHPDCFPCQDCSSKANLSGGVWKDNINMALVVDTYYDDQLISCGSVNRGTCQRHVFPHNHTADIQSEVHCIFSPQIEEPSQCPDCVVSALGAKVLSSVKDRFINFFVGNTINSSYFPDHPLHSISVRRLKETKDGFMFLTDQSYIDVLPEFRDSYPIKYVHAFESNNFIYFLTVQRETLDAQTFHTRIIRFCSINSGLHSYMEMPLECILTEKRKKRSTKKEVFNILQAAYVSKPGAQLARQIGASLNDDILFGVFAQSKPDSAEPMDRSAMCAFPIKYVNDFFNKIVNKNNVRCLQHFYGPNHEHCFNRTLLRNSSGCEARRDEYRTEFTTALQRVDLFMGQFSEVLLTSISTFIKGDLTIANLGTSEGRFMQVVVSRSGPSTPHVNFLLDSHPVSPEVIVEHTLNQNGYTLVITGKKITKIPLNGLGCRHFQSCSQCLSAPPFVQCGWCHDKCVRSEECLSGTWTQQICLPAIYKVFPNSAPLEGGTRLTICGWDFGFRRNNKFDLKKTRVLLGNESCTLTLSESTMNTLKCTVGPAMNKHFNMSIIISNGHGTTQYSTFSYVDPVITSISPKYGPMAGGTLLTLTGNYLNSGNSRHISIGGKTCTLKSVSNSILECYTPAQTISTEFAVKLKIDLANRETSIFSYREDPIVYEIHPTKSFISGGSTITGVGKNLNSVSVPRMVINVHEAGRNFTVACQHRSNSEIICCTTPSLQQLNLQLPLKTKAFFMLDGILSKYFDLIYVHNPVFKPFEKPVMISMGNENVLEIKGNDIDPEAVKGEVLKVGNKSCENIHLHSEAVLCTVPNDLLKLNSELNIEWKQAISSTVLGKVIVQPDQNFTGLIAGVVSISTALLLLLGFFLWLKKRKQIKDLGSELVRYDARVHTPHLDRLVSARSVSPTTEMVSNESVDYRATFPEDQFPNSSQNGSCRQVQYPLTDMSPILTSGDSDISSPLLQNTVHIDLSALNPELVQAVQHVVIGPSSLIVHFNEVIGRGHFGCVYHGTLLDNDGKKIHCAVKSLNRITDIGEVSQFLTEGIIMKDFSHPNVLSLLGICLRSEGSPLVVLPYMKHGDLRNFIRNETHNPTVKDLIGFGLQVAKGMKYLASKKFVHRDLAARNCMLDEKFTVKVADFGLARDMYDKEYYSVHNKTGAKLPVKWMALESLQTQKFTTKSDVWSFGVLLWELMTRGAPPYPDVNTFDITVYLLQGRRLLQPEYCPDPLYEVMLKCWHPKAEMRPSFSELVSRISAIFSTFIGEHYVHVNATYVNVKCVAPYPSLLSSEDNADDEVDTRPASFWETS
Method: (§1) We also analysed whether chimeric anti-MET antibodies bound to native human and mouse MET in living cells. […] Antibody binding to cells was analysed by flow cytometry using phycoerythrin-conjugated anti-human IgG1 antibodies (eBioscience) and a CyAn ADP analyser (Beckman Coulter). As a positive control for human MET binding, we used a commercial mouse anti-human MET antibody (R&D Systems) and phycoerythrin-conjugated anti-mouse IgG1 antibodies (eBioscience). As a positive control for mouse MET binding we used a commercial goat anti-mouse MET antibody (R&D Systems) and phycoerythrin-conjugated anti-goat IgG1 antibodies (eBioscience). […] Consistent with the data obtained in ELISA, maximal binding (EMAX) varied depending on antibody, but was similar in human and mouse cells.

[2] = target: T2, mouse MET-Fc chimeric protein (R&D Systems) (mouse, UniProt P16056 25-929, limits assumed); assay: competition ELISA, mMET-Fc in solid phase, competitor 0.3 nM biotinylated mHGF
T2 construct: bought (R&D Systems); also called mMET; not shown: Fc
Method: (§2) To investigate along this line, we tested the competition between mAbs and HGF by ELISA. Recombinant human and mouse HGF (R&D Systems) were biotinylated at the N-terminus using NHS-LC-biotin (Thermo Scientific). MET-Fc protein, either human or mouse (R&D Systems), was immobilized in solid phase and then exposed to 0.3 nM biotinylated HGF, either human or mouse, in the presence of increasing concentrations of antibodies (0-120 nM).
(§3) A MET-Fc chimeric protein (either human or mouse) was immobilized in solid phase and exposed to a fixed concentration of biotinylated HGF (either human or mouse), in the presence of increasing concentrations of antibodies. […] Antibody-HGF competition is expressed as IC₅₀ (the concentration that achieves 50% competition) and IMAX (the maximum % competition reached at saturation).

[3] = target: T3, native mouse MET on living mouse cells (mouse, UniProt P16056 25-1379); assay: flow cytometry, MLP29 cells
T3 construct: whole, on cells; also called Mouse cells (MLP29)
Method: as §1

[4] = target: T3, native mouse MET on living mouse cells; assay: cell-based or functional assay
[5] = target: T1, native human MET on living human cells; assay: cell-based or functional assay
[6] = target: T3, native mouse MET on living mouse cells; assay: cell-based or functional assay; remark: listed apart in the source
[7] = target: T1, native human MET on living human cells; assay: cell-based or functional assay; remark: listed apart in the source
[8] = target: T4, human MET-Fc chimeric protein (R&D Systems) (human, UniProt P08581 25-932); assay: competition ELISA, hMET-Fc in solid phase, competitor 0.3 nM biotinylated hHGF
T4 construct: extracellular domain; bought (R&D Systems); also called hMET; not shown: Fc portion of human IgG1
T4 sequence (P08581 25-932, change not shown): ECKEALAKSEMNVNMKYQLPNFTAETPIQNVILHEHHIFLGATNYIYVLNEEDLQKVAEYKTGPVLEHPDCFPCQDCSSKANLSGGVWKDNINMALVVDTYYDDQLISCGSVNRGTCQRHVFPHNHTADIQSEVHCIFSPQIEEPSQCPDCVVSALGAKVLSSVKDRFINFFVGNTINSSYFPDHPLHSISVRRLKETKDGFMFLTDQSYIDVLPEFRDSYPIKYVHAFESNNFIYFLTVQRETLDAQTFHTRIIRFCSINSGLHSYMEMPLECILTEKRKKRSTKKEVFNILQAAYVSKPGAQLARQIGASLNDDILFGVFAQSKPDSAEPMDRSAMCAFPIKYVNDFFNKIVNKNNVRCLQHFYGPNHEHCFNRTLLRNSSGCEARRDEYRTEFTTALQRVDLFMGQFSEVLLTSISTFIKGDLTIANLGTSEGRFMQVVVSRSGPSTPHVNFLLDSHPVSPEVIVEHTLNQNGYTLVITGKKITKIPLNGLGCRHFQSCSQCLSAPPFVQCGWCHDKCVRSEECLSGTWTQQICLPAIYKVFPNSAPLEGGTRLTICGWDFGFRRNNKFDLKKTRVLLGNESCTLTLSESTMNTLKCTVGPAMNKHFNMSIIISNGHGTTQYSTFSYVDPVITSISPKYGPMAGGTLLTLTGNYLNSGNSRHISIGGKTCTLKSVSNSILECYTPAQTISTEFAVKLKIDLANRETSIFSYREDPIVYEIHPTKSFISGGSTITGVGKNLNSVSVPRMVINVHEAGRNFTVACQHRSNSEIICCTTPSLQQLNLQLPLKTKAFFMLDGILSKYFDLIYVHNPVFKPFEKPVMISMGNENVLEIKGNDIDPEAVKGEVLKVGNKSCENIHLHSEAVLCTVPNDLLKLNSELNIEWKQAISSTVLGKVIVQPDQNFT
Method: as §2, §3

[9] = target: T5, human MET extracellular domain (ECD) (human, UniProt P08581 25-932); assay: ELISA, periplasmic Fab on MET ECD
T5 construct: range 1-932; recombinant ECD; also called hMET; human MET ECD
T5 sequence (P08581 25-932 limits assumed, form in doubt): as the sequence (P08581 25-932, change not shown) above
Method: Fab-expressing phages from the libraries described above were produced according to standard phage display protocols. For selection, phages were first adsorbed to immobilized recombinant human MET ECD, washed, and then eluted using trypsin. After two cycles of selection with human MET ECD, two other cycles were performed in the same fashion using mouse MET ECD. In parallel, we also selected phages alternating a human MET ECD cycle with a mouse MET ECD cycle, for a total of four cycles. Phages selected by the two approaches were pooled together and then used to infect TG1 E. coli. Individual colonies were isolated and secretion of Fabs was induced using IPTG (Fermentas). The Fab-containing periplasmic fraction of bacteria was collected and tested for its ability to bind human and mouse MET ECD by Surface Plasmon Resonance (SPR). Human or mouse MET ECD was immobilized on a CM-5 chip using amine coupling in sodium acetate buffer (GE Healthcare). The Fab-containing periplasmic extracts were loaded into a BIACORE 3000 apparatus (GE Healthcare) with a flow rate of 30 μl/min. The Fab off-rates (koff) were measured over a two minute period. Binding of Fabs to human and mouse MET was further characterized by ELISA using MET ECD in solid phase and periplasmic crude extract in solution.
TABLE 7 Fabs binding to both human MET (hMET) and mouse MET (mMET). Fabs are grouped in families based on their VH CDR3 sequence. Binding of Fabs to human and mouse MET ECD was determined by Surface Plasmon Resonance (SPR) and by ELISA. SPR values represent the koff (s⁻¹). ELISA values represent the Optical Density (OD) at 450 nm (AU, arbitrary units). Both SPR and ELISA were performed using crude periplasmic extracts. Fab concentration in the extract was not determined. Values are the mean of three independent measurements.

Binder | EMAX (% relative to control) [1] [%] | IMAX (maximum % competition) [2] [%] | EMAX (% relative to control) [3] [%] | protection from staurosporine, viability EC50, MLP29 [4] [nM] | protection from staurosporine, viability EMAX, MLP29 [4] [%] | protection from staurosporine, viability EC50, MCF10A [5] [nM] | protection from staurosporine, viability EMAX, MCF10A [5] [%] | cell scattering score, MLP29, 0.001 nM [6] [score 0-4] | cell scattering score, MLP29, 0.004 nM [6] [score 0-4] | cell scattering score, MLP29, 0.012 nM [6] [score 0-4] | cell scattering score, MLP29, 0.037 nM [6] [score 0-4] | cell scattering score, MLP29, 0.111 nM [6] [score 0-4] | cell scattering score, MLP29, 0.333 nM [6] [score 0-4] | cell scattering score, MLP29, 1.000 nM [6] [score 0-4] | cell scattering score, MLP29, 3.000 nM [6] [score 0-4] | cell scattering score, MLP29, 9.000 nM [6] [score 0-4] | cell scattering score, HPAF-II, 0.001 nM [7] [score 0-4] | cell scattering score, HPAF-II, 0.004 nM [7] [score 0-4] | cell scattering score, HPAF-II, 0.012 nM [7] [score 0-4] | cell scattering score, HPAF-II, 0.037 nM [7] [score 0-4] | other results
B1 | 121 | 62.5 | 115 | 30.1 | 50.2 | 25.4 | 51.9 | 0 | 0 | 0 | 0 | 0 | 0 | 1 | 2 | 3 | 0 | 0 | 0 | 0 | cell scattering score, HPAF-II, 0.111 nM [7]: 0 score 0-4; cell scattering score, HPAF-II, 0.333 nM [7]: 0 score 0-4; cell scattering score, HPAF-II, 1.000 nM [7]: 1 score 0-4; cell scattering score, HPAF-II, 3.000 nM [7]: 2 score 0-4; cell scattering score, HPAF-II, 9.000 nM [7]: 3 score 0-4; IMAX (maximum % competition) [8]: 69.4%
B2 |  |  |  | 5.35 | 58.6 |  |  | 0 | 1 | 2 | 3 | 4 | 4 | 4 | 4 | 4 |  |  |  |  | 
B3 | 110 | 50.7 | 121 | > 32 | 39.7 | > 32 | 39.4 | 0 | 0 | 0 | 0 | 0 | 1 | 2 | 2 | 3 | 0 | 0 | 0 | 0 | cell scattering score, HPAF-II, 0.111 nM [7]: 0 score 0-4; cell scattering score, HPAF-II, 0.333 nM [7]: 1 score 0-4; cell scattering score, HPAF-II, 1.000 nM [7]: 2 score 0-4; cell scattering score, HPAF-II, 3.000 nM [7]: 2 score 0-4; cell scattering score, HPAF-II, 9.000 nM [7]: 3 score 0-4; IMAX (maximum % competition) [8]: 51.4%
B4 |  |  |  |  |  |  |  |  |  |  |  |  |  |  |  |  |  |  |  |  | ELISA OD450 [9]: 0.45 AU
B5 | 85.7 | 71.5 | 73.8 | > 32 | 37.5 | > 32 | 41.7 | 0 | 0 | 0 | 1 | 2 | 3 | 3 | 4 | 4 | 0 | 0 | 0 | 1 | cell scattering score, HPAF-II, 0.111 nM [7]: 2 score 0-4; cell scattering score, HPAF-II, 0.333 nM [7]: 3 score 0-4; cell scattering score, HPAF-II, 1.000 nM [7]: 3 score 0-4; cell scattering score, HPAF-II, 3.000 nM [7]: 4 score 0-4; cell scattering score, HPAF-II, 9.000 nM [7]: 4 score 0-4; IMAX (maximum % competition) [8]: 76.9%

— patent US20210024639A1 (AGOMAB THERAPEUTICS, published 2021)
